From patent publication US6884600B1, “Protein phosphatase-1 catalytic subunit interactions” (Medical Research Council London, priority 1996, dated 2005)

How the values were obtained:
PP1c (γ1-isoform) = PP1c (γ1-isoform) (Homo sapiens, UniProt P36873); assay: Far Western: GST-GM fusion proteins probed with digoxygenin-labelled PP1γ; format: binding; conditions: GST-fusion proteins on blot probed with digoxygenin-labelled PP1γ
Text: GST-GM fusion proteins were electrophoresed on 10% SDS/polyacrylamide gels and stained with Coomassie blue (lanes 1-3) or, after transfer to nitrocellulose, probed with digoxygenin-labelled PP1γ (lanes 4-6) as in [9]. Lanes 1 and 4, GST-GM-(E2-D118); Lanes 2 and 5, GST-GM-(H100-P350); Lanes 3 and 6, GST. The positions of the marker proteins glycogen phosphorylase (97 kDa), bovine serum albumin (66 kDa), ovalbumin (43 kDa), carbonic anhydrase (29 kDa) and soybean trypsin inhibitor (20 kDa) are indicated.
(§1) The myosin-associated form of PP1 (PP1M) was from chicken gizzard and the glycogen-associated form of PP1 (PP1G) from rabbit skeletal muscle. The β isoform of PP1c was released from PP1G by incubation for 2 hours in 2M LiBr, then purified by gel-filtration on a 30×1 cm column of Superose 12 (Pharmacia, Milton Keynes, U.K.) in the presence of 0.5M LiBr. Glycogen protein particles from rat liver were used as the source of hepatic PP1G Digoxygenin-labelled PP1c (γ1-isoform, hereafter termed PP1) was prepared as in [9]. GL was expressed in E. coli as a glutathione-S-transferase (GST) fusion protein [7], termed GST-GL. The catalytic subunit of PP2A from bovine heart (PP2AC) was provided by Dr R. MacKintosh in this Unit. The phosphorylatable myosin light chain (MLC20) and heavy meromyosin from chicken gizzard were a gift from Dr M. Ikebe (Case Western Reserve University, Cleveland, USA). Thrombin and benzamidine-Agarose were purchased from Sigma (Poole, UK).
The amino acid sequence of rat hepatic GL is 23% identical (39% similar) to residues 1-286 of GM from human skeletal muscle. […] Fusion proteins in which GST was linked to fragments of GM were therefore tested for their ability to bind to PP1c. […] We therefore synthesised GM-(G63-T93) and examined its effect on the enzymatic properties of PP1GL, the form of PP1 associated with rat hepatic protein-glycogen particles.

PP1c [1] = target: T1, PP1c (Oryctolagus cuniculus, UniProt P62143); assay: Phosphorylase phosphatase activity of PP1c; format: biochemical, rabbit
T1 construct: from tissue; host or cells: rabbit skeletal muscle (PP1G dissociated with LiBr)
Procedure: (§2) A,B; Effects of M110-(M1-E309) (closed circles), M110-(M1-F38) (open circles) and M110-(D39-E309) (open triangles) on the MLC20 phosphatase […] and phosphorylase phosphatase (B) activities of PP1c were measured after incubating PP1c for 15 minutes at 30° C. with each fragment. The results are presented as a percentage of those obtained in experiments where the M110 fragments were omitted.
(§3) C,D; The effect of M110-(M1-A150) (open circles) and M110-(L24-Y496) (closed circles) on the MLC20 phosphatase (C) and phosphorylase phosphatase (D) activities of PP1c were measured as in A,B.
(B) The phosphorylase phosphatase activity of PP1c was assayed as in A in the presence or absence of 1 μM GM-(G63-T93) and 1.0 nM M110-(M1-E309). The results are presented (SEM for three experiments) as a percentage of the PP1c activity measured in the absence of GM-(63-T93), M110-(M1-F38) or M110-(M1-E309).
as §1
(§4) ^32P-labelled rabbit skeletal muscle phosphorylase a (containing 1.0 mol phosphate per mol subunit) was prepared by phosphorylation with phosphorylase kinase, ^32P-labelled rabbit skeletal muscle glycogen synthase (containing 1.5 mol/mol subunit in the sites 3 region) was prepared by phosphorylation with glycogen synthase kinase-3 [24]). ^32P-labelled chicken gizzard MLC20 and ^32P-labelled chicken gizzard heavy meromyosin (containing 1.0 mol phosphate per mol subunit) were prepared by phosphorylation with smooth muscle myosin light chain kinase. The dephosphorylation of phosphorylase a (10 μM), glycogen synthase (1 μM) and MLC20 (1 μM) and heavy meromyosin (1 μM) was carried out as in [24]. One unit of activity (U) was that amount which released […] of phosphate in one minute.
(§5) PP1c was isolated from the rabbit skeletal muscle PP1-GM complex as described previously (Johnson et al, 1996). Glycogen particles isolated from rat liver (Schelling el al, 1988) served as the source of PP1-GL. The dephosphorylation of glycogen phosphorylase (10 μM) and the isolated MLC20 of smooth muscle myosin (1 μM) by PP1c was carried out as described previously (Cohen et al., 1988; Alessi et al., 1992).

PP1c [2] = target: T1, PP1c; assay: MLC20 (myosin P-light chain) phosphatase activity of PP1c; format: biochemical
Procedure: as §2, §3
(A) The MLC20 phosphatase activity of PP1c was assayed after incubation for 15 minutes at 30° C. in the presence or absence of 1 μM GM-(G63-T93) and either 0.1 μM M110-(M1-F38) or 0.1 nM M110-(M1-E309).
(1-38, open circles) or M110[M1-K35] (1-35, closed circles) were incubated with PP1c for 15 min at 30° C. and reactions started with the ^32P-labelled MLC20 substrate. The results are expressed as a % of the activity determined in control incubations where the M110 peptides were omitted (100%). Similar results were obtained in three separate experiments.
as §1, §4, §5
^32P-labelled myosin P-light chains containing 1.0 mol phosphate per mol subunit was prepared by phosphorylation with smooth muscle myosin light chain kinase. The dephosphorylation of myosin P-light chain (1 μM) was carried out as in [4] and one unit of activity (U) was that amount which catalysed the release of 1 μmole of phosphate in one min. When assaying PP1M in immunoprecipitates from the myofibrillar extracts, the tubes were shaken continuously and 3 nM okadaic acid was included to inhibit any PP2A present.

myosin = target: T2, myosin (Gallus gallus, UniProt P10587); assay: Myosin binding assay (pelleting with myosin); design: species or system chicken; conditions: myosin 1 μM, 15 min 0° C.
T2 construct: from tissue; host or cells: chicken gizzard
Procedure: The PP1 catalytic subunit (PP1c), PP1M, or PP1M lacking the M21 subunit, PP1M(ΔM21), each at 30 nM, were incubated for 15 min at 0° C. with 1 μM myosin and centrifuged (see Methods of Example 3). […] The results shown are the average (±S.E.M.) for three separate experiments each assayed in duplicate.
(A); PP1M, M110-(M1-S477) and GST-M110-(M377-K976), each at 30 nM were incubated for 15 min at 0° C. with 1 μM myosin and centrifuged. The supernatants (S), resuspended pellets (P) and the suspension before centrifugation (T, total) were electrophoresed on 12% SDS/polyacrylamide gels, transferred to nitrocellulose and immunoblotted with antibodies raised against the PP1M holoenzyme. No protein was pelleted in the absence of myosin (not shown). The positions of the marker proteins myosin heavy chain (200 kDa), glycogen phosphorylase (97 kDa), bovine serum albumin (66 kDa), ovalbumin (43 kDa), carbonic anhydrase (29 kDa) and soybean trypsin inhibitor (20 kDa) are indicated. (B) The experiments were carried out as in (A), except that the M110 fragments and M21 subunit were used at 100 nM, the 8.5 kDa M110-(K933-I1004) fragment was electrophoresed on a 16.5% polyacrylamide gel and immunoblotting was carried out with affinity purified antibodies (see Methods). A small amount of M110-(R714-I1004) pelleted in the absence of myosin. […] No other protein was pelleted in the absence of myosin.
(A); Myosin (1 μM) was mixed with 50 μM, 20 μM or 10 μM M21 subunit to give the molar ratios M21:myosin dimer indicated. After 15 min at 0° C., the solutions were centrifuged and the supernatants (S), resuspended pellets (P) and the suspension before centrifugation (T, total) were electrophoresed on 12% SDS/polyacrylamide gels and stained with Coomassie blue. The positions of the myosin heavy chain (MHC) and the M21 subunit are indicated. The myosin light chains migrate faster than the M21 subunit and are not visible at these loadings.
Myosin binding assays. Myosin (0.5 mg/ml, 1 μM in terms of myosin heavy chains) in 10 mM Hepes pH 7.5, 50 mM KCl, 5 mM MgCl2, 0.1% (by vol) 2-mercaptoethanol, was mixed with PP1M, M21 subunit, or fragments of the M110 and M21 subunits, at the concentrations indicated in figure legends. After incubation for 15 min at 0° C., the solutions were centrifuged for 2 min at 13,000×g, the supernatants removed, and the pellets washed twice in 10 mM Hepes pH 7.5, 50 mM KCl, 5 mM MgCl2, 0.1% (by vol) 2-mercaptoethanol before resuspension in 50 mM Tris-HCl pH 7.5, 0.1 mM EGTA, 0.03% (by mass) Brij 35, 0.6 M NaCl, 0.1% (by vol) 2-mercaptoethanol. Aliquots of the supernatant, the resuspended pellet and the suspension before centrifugation were either assayed for myosin P-light chain phosphatase activity or denatured in SDS and analysed by SDS/polyacrylamide gel electrophoresis.

T1 sequence (P62143 whole entry): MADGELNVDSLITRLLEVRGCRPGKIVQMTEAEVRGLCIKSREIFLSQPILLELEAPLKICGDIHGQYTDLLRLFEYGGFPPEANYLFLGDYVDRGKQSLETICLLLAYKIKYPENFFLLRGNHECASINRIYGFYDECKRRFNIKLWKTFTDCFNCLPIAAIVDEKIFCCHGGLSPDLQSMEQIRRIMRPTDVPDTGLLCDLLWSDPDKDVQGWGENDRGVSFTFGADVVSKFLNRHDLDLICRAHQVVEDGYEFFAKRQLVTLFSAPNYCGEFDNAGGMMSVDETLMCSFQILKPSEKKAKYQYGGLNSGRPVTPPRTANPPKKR
Chain of PP1c (γ1-isoform) (P36873 whole entry, the tested form may be a part, canonical isoform): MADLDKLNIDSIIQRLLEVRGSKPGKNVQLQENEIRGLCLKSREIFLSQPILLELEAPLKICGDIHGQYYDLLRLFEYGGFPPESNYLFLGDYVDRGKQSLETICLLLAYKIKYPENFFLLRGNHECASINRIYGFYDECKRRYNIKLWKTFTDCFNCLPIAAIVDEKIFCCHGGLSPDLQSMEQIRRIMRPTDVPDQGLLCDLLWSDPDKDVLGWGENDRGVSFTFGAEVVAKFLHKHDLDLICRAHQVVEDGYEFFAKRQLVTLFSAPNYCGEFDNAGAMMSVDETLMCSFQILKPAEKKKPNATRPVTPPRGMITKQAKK
T2 sequence (P10587 whole entry): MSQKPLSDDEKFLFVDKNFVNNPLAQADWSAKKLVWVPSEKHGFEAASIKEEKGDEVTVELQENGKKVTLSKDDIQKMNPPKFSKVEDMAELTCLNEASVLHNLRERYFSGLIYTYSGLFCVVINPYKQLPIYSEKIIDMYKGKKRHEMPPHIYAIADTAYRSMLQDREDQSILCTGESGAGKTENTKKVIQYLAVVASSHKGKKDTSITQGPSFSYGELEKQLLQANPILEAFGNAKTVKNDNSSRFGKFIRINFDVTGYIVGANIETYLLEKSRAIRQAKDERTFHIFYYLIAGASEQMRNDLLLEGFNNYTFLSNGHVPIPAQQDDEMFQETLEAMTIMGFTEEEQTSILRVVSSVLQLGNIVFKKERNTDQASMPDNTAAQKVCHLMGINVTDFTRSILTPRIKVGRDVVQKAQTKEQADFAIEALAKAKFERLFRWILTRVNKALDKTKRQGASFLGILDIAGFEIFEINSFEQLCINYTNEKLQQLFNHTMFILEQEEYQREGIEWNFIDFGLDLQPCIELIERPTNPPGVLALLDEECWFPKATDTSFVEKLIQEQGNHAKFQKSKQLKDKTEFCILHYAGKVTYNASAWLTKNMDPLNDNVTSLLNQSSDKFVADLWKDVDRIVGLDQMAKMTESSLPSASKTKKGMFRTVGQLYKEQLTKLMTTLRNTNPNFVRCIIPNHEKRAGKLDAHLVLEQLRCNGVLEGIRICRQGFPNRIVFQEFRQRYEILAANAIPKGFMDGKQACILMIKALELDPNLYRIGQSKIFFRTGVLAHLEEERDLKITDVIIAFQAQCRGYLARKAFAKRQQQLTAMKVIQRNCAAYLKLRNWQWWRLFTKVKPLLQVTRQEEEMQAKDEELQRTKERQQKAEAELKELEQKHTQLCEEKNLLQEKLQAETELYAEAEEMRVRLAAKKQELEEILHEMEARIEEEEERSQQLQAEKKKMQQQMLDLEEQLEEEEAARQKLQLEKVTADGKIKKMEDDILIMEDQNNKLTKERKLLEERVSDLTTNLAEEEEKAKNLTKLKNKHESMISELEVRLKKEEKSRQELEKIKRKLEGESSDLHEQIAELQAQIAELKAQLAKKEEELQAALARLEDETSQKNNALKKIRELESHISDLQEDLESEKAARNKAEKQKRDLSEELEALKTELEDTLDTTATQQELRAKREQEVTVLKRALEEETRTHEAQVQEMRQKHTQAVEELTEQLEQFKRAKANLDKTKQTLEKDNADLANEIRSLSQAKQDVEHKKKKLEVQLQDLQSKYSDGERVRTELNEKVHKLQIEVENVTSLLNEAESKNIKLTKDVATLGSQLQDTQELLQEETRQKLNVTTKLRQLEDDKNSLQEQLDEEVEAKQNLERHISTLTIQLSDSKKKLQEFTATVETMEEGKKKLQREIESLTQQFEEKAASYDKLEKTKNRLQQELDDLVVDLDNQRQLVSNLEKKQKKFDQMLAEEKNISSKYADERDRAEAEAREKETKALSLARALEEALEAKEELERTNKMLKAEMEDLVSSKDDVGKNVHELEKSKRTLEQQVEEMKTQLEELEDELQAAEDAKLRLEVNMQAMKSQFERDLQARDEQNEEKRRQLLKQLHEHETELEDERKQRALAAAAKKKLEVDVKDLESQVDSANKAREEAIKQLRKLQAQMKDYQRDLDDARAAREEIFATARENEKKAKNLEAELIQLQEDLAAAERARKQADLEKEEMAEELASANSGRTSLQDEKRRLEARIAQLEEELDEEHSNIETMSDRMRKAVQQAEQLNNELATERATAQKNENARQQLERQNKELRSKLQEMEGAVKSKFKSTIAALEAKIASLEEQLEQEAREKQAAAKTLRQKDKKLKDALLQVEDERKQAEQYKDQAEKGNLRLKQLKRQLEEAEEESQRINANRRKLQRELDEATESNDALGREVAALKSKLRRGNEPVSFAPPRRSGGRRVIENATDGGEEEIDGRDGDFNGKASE
T2 sequence (P02612 whole entry partner): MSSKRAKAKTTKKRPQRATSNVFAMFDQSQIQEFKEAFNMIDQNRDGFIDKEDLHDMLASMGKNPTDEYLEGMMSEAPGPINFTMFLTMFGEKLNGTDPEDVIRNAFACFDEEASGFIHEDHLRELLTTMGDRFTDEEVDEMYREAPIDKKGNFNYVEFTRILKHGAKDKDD
T2 sequence (P02607 whole entry partner): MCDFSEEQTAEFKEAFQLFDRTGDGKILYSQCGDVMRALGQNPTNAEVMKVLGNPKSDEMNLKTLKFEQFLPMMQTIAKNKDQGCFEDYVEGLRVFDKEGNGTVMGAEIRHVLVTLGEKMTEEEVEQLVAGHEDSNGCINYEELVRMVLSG

| Molecule | interaction with PP1 in Far Western experiments (PP1c (γ1-isoform)) | effect on the phosphorylase phosphatase activity of PP1c (PP1c [1]) | concentration needed to modulate the specificity of PP1c compared to thrombin-cleaved M110-(M1-E309) (PP1c [2]) | effect on the MLC20 phosphatase activity of PP1c (PP1c [2]) | binding to myosin (myosin) |
| --- | --- | --- | --- | --- | --- |
| GST-GM-(E2-D118): GST fusion of amino acids 2-118 of human GM (protein, left off: a dimerising Fc or GST, GST fusion of amino acids 2-118 of human GM) EPSEVPSQISKDNFLEVPNLSDSLCEDEEVTFQPGFSPQPSRRGSDSSEDIYLDTPSSGTRRVSFADSFGFNLVSVKEFDCWELPSASTTFDLGTDIFHTEEYVLAPLFDLPSSKEDQLNSS | interacted with PP1 | – | – | – | – |
| M110-(M1-A150): rat aorta M110 fragment, residues 1-150 (protein, UniProt Q10728 1-150, looked up, fragment) MKMADAKQKRNEQLKRWIGSETDLEPPVVKRQKTKVKFDDGAVFLAACSSGDTDEVLKLLHRGADINYANVDGLTALHQACIDDNVDMVKFLVENGANINQPDNEGWIPLHAAASCGYLDIAEFLIGQGAHVGAVNSEGDTPLDIAEEEA | – | modified the specificity of PP1 similarly | 10 fold higher | modified the specificity of PP1 similarly | – |
| GST-M110-(M1-S477): GST fusion of rat aorta M110 residues 1-477 (protein, left off: a dimerising Fc or GST) MKMADAKQKRNEQLKRWIGSETDLEPPVVKRQKTKVKFDDGAVFLAACSSGDTDEVLKLLHRGADINYANVDGLTALHQACIDDNVDMVKFLVENGANINQPDNEGWIPLHAAASCGYLDIAEFLIGQGAHVGAVNSEGDTPLDIAEEEAMEELLQNEVNRQGVDIEAARKEEERIMLRDARQWLNSGHISDVRHAKSGGTALHVAAAKGYTEVLKLLIQAGYDVNIKDYDGWTPLHAAAHWGKEEACRILVDNLCDMETVNKVGQTAFDVADEDILGYLEELQKKQNLLHSEKRDKKSPLIESTANMENNQPQKTFKNKETLIIEPEKNASRIESLEQEKADEEEEGKKDESSCSSEEDEEDDSESEAETDKTKPMASVTNAHTASTQAAPAAVTTPTLSSNQGTPTSPVKKFPTSTTKISPKEEERKDESPASWRLGLRKTGSYGALAEITASKEAQKEKDTAGVIRSASSPRLSSAANSISSLIHRD | – | inhibited the dephosphorylation of glycogen phosphorylase | – | stimulated the PP1c-catalysed dephosphorylation of the myosin P-light chain | neither GST-M110-(M1-S477) nor GST-M110-(M1-E309) bound to myosin |
| GST-GM-(E2-P243): GST fusion of amino acids 2-243 of human GM (protein, left off: a dimerising Fc or GST, GST fusion of amino acids 2-243 of human GM) EPSEVPSQISKDNFLEVPNLSDSLCEDEEVTFQPGFSPQPSRRGSDSSEDIYLDTPSSGTRRVSFADSFGFNLVSVKEFDCWELPSASTTFDLGTDIFHTEEYVLAPLFDLPSSKEDLMQQLQIQKAILESTESLLGSTSIKGIIRVLNVSFEKLVYVRMSLDDWQTHYDILAEYVPNSCDGETDQFSFKIVLVPPYQKDGSKVEFCIRYETSVGTFWSNNNGTNYTFICQKKEQEPEPVKP | interacted with PP1 | – | – | – | – |
| M110-(L24-Y496): rat aorta M110 fragment, residues 24-496 (protein, UniProt Q10728 24-496, looked up, fragment) LEPPVVKRQKTKVKFDDGAVFLAACSSGDTDEVLKLLHRGADINYANVDGLTALHQACIDDNVDMVKFLVENGANINQPDNEGWIPLHAAASCGYLDIAEFLIGQGAHVGAVNSEGDTPLDIAEEEAMEELLQNEVNRQGVDIEAARKEEERIMLRDARQWLNSGHISDVRHAKSGGTALHVAAAKGYTEVLKLLIQAGYDVNIKDYDGWTPLHAAAHWGKEEACRILVDNLCDMETVNKVGQTAFDVADEDILGYLEELQKKQNLLHSEKRDKKSPLIESTANMENNQPQKTFKNKETLIIEPEKNASRIESLEQEKADEEEEGKKDESSCSSEEDEEDDSESEAETDKTKPMASVTNAHTASTQAAPAAVTTPTLSSNQGTPTSPVKKFPTSTTKISPKEEERKDESPASWRLGLRKTGSYGALAEITASKEAQKEKDTAGVIRSASSPRLSSSLDNKEKEKDNKGTRLAY | – | inhibited the phosphorylase phosphatase activity of PP1c in a similar manner to M110-(M1-A150) | – | less effective than M110-(M1-A150) or M110-(M1-E309) in stimulating the MLC20 phosphatase activity of PP1c | – |
